# From the RNAGym collection of RNA variant scans (doi:10.7554/elife.80360)
# B1: HDV Ribozyme (parent)
# chain: GGCCGGCAUGGUCCCAGCCUCCUCGCUGGCGCCGGCUGGGCAACAUUCCGAGGGGACCGUCCCCUCGGUAAUGGCGAAUGGGACCCA
# Variants of: B1
# Experiment: self-cleavage, relative activity (ratio to wild type); higher = more cleavage; co-transcriptional
row,Variant,self-cleavage
1,GGCAGGCAUGGUCCCAGCCUCCUCGCUGGCGCCGGCUGGGCAACAUUCCGAGGGGACCGUCCCCUCGGUCAUGGCGAAUGGGACCCA,0.136
2,GGCAGGCAUGGUCCCAGCCUCCUCGCUGGCGCCGGCUGGGCAACAUUCCGAGGGGACCGUCCCCUCGGUAAUGGCGAAUGGGUCCCA,0.0959
3,GGCAGGCAUGGUCCCAGCCUCCUCGCUGGCGCCGGCUGGGCAACAUUCCGAGGGGACCGUCCCCUCGGUAAUGGCGAAUGGGCCCCA,0.232
4,GGCAGGCAUGGUCCCAGCCUCCUCGCUGGCGCCGGCUGGGCAACAUUCCGAGGGGACCGUCCCCUCGGUAAUGGCGAAUGGGGCCCA,0.234
5,GGCAGGCAUGGUCCCAGCCUACUCGCUGGCGCCGGCUGGGCAACAUUCCGAGGGGACCGUCCCCUCGGUAAUGGCGAAUGGGACCCA,0
6,GGCAGGCAUGGUCCCAGCCUUCUCGCUGGCGCCGGCUGGGCAACAUUCCGAGGGGACCGUCCCCUCGGUAAUGGCGAAUGGGACCCA,0.0346
7,GGCAGGCAUGGUCCCAGCCUCCUCGCUGGCGCCGGCUGGGCAACAUUCCGAGGGGACCGUCCCCUCGGUAAUGGCGCAUGGGACCCA,0.0462
8,GGCAGGCAUGGUCCGAGCCUCCUCGCUGGCGCCGGCUGGGCAACAUUCCGAGGGGACCGUCCCCUCGGUAAUGGCGAAUGGGACCCA,0.166
9,GGCAGGCAUGGUCCUAGCCUCCUCGCUGGCGCCGGCUGGGCAACAUUCCGAGGGGACCGUCCCCUCGGUAAUGGCGAAUGGGACCCA,0.0378
10,GGCAGGCAUGGUCCCAGCCUCCUCGCUGGCGCCGGCUGGGCAACAUUCCGAGGGGACCGUCCCCUCGGUACUGGCGAAUGGGACCCA,0.156
11,GGCAGGCAUGGUCCCAGCCUCCUCGGUGGCGCCGGCUGGGCAACAUUCCGAGGGGACCGUCCCCUCGGUAAUGGCGAAUGGGACCCA,0.348
12,GGCAGGCAUGGUCCCAGCCUCCUCGCUGGCGCAGGCUGGGCAACAUUCCGAGGGGACCGUCCCCUCGGUAAUGGCGAAUGGGACCCA,0
13,GGCAGGCAUGGUCCCAGCCUCCUCGCUGGCGCCGGCUGGGCAAAAUUCCGAGGGGACCGUCCCCUCGGUAAUGGCGAAUGGGACCCA,0.148
14,GGCAGGCAUGGUCCCAGCCUCCUCGCUGGCGCCGGCUGGGCAACAUUCCGAGGGGACCGUCCCCUCGGUAAUGGCGAGUGGGACCCA,0.147
15,GGCAGGCAUGGUCCCAGCCUCCUCGCUGGCGUCGGCUGGGCAACAUUCCGAGGGGACCGUCCCCUCGGUAAUGGCGAAUGGGACCCA,0.0489
16,GGCAGGCAUGGUCCCAGCCUCCUCGCUGGCGGCGGCUGGGCAACAUUCCGAGGGGACCGUCCCCUCGGUAAUGGCGAAUGGGACCCA,0

row,Variant,self-cleavage
1,GGCAGGCAUGGUCCCAGCCUCCUCGCUGGAGCCGGCUGGGCAACAUUCCGAGGGGACCGUCCCCUCGGUAAUGGCGAAUGGGACCCA,0.0519
2,GGCAGGCAUGGUUCCAGCCUCCUCGCUGGCGCCGGCUGGGCAACAUUCCGAGGGGACCGUCCCCUCGGUAAUGGCGAAUGGGACCCA,0.0739
3,GGCAGGCAUGGUCCCAGCCUCCUCGCUGGCGCCGGCUGGGUAACAUUCCGAGGGGACCGUCCCCUCGGUAAUGGCGAAUGGGACCCA,0.163
4,GGCAGGCAUGGUCCCAGCCUCCUCGCUGGCGCCGGCUGGGGAACAUUCCGAGGGGACCGUCCCCUCGGUAAUGGCGAAUGGGACCCA,0.0519
5,GGCAGGCAUGGUCCCAGCCUCCUAGCUGGCGCCGGCUGGGCAACAUUCCGAGGGGACCGUCCCCUCGGUAAUGGCGAAUGGGACCCA,0.0475
6,GGCAGGUAUGGUCCCAGCCUCCUCGCUGGCGCCGGCUGGGCAACAUUCCGAGGGGACCGUCCCCUCGGUAAUGGCGAAUGGGACCCA,0.0519
7,GGCAGGGAUGGUCCCAGCCUCCUCGCUGGCGCCGGCUGGGCAACAUUCCGAGGGGACCGUCCCCUCGGUAAUGGCGAAUGGGACCCA,0.104
8,GGCAGGCAUGGUCCCAGCAUCCUCGCUGGCGCCGGCUGGGCAACAUUCCGAGGGGACCGUCCCCUCGGUAAUGGCGAAUGGGACCCA,0.0386
9,GGCAGGCAUGGUCGCAGCCUCCUCGCUGGCGCCGGCUGGGCAACAUUCCGAGGGGACCGUCCCCUCGGUAAUGGCGAAUGGGACCCA,0.175
10,GGCAGGCAUGGUCCCAGGCUCCUCGCUGGCGCCGGCUGGGCAACAUUCCGAGGGGACCGUCCCCUCGGUAAUGGCGAAUGGGACCCA,0.166
11,GGCAGGCAUGGUCCCAGACUCCUCGCUGGCGCCGGCUGGGCAACAUUCCGAGGGGACCGUCCCCUCGGUAAUGGCGAAUGGGACCCA,0.0277
12,GGCAGGCAUGGUCCCAGCCUCCUCGCUGGCGCCGGGUGGGCAACAUUCCGAGGGGACCGUCCCCUCGGUAAUGGCGAAUGGGACCCA,0.0875
13,GGCAGGCAUGGUCCCAGCCUCCUCGCUGGCGCCGGAUGGGCAACAUUCCGAGGGGACCGUCCCCUCGGUAAUGGCGAAUGGGACCCA,0.0314
14,GGCAGGCAUGGUCCCAGCCUCCUCGCUGGCGCCGGCUGGGCAACAUUCCGAGGGGGCCGUCCCCUCGGUAAUGGCGAAUGGGACCCA,0.217
15,GGCAGGCAUGGUCCCAGCCUCCUCGCUGGCGCCGGCUGGGCAACAUUCCGAGGGGUCCGUCCCCUCGGUAAUGGCGAAUGGGACCCA,0.321
16,GGCAGGCAUGGUCCCAGCCUCCUCGCUGGCGCCGGCUGGGCAACAUUCCGAGGGGCCCGUCCCCUCGGUAAUGGCGAAUGGGACCCA,0.287
